fmk = not defined here
T1: rev-caspase-3 (human, UniProt P42574 1-175, limits assumed)
T1 sequence: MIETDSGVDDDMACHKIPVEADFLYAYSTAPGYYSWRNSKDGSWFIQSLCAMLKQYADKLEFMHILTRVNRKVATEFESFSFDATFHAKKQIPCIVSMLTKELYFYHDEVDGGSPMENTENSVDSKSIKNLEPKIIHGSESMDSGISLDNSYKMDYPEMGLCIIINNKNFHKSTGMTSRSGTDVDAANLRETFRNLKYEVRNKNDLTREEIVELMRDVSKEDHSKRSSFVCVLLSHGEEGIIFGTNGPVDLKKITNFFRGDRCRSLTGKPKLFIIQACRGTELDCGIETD

T2: C-terminus of lamin A, P02545
T2 chain: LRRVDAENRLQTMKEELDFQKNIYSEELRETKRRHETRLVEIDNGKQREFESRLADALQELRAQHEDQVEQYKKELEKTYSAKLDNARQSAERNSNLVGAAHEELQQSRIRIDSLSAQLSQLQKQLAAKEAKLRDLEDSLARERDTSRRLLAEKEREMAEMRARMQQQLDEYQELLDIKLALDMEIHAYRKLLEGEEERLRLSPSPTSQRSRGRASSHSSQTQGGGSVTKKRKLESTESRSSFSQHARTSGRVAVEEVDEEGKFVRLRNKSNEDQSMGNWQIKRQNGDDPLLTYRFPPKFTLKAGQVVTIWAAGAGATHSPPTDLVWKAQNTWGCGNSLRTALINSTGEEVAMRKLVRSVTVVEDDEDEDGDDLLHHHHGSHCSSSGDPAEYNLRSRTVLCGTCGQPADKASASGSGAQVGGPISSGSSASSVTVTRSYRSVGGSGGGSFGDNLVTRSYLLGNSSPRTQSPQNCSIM

B1: z-VAD-fmk (peptide)
peptide: {code z}-Val-Ala-Asp-fmk
modifications: reading uncertain; also: printed as z-VAD-fmk
B2: rev-caspase-3 (protein)
chain: T1 sequence
B3: caspase-6 (wild type) (protein)
chain: MSSASGLRRGHPAGGEENMTETDAFYKREMFDPAEKYKMDHRRRGIALIFNHERFFWHLTLPERRGTCADRDNLTRRFSDLGFEVKCFNDLKAEELLLKIHEVSTVSHADADCFVCVFLSHGEGNHIYAYDAKIEIQTLTGLFKGDKCHSLVGKPKIFIIQACRGNQHDVPVIPLDVVDNQTEKLDTNITEVDAASVYTLPAGADFLMCYSVAEGYYSHRETVNGSWYIQDLCEMLGKYGSSLEFTELLTLVNRKVSQRRVDFCKDPSAIGKKQVPCFASMLTKKLHFFPKSN
B4: rev-caspase-6 (protein)
chain: MVEIDAASVYTLPAGADFLMCYSVAEGYYSHRETVNGSWYIQDLCEMLGKYGSSLEFTELLTLVNRKVSQRRVDFCKDPSAIGKKQVPCFASMLTKKLHFFPKSNLEHHHHHHVEIDGGSPMSSASGLRRGHPAGGEENMTETDAFYKREMFDPAEKYKMDHRRRGIALIFNHERFFWHLTLPERRGTCADRDNLTRRFSDLGFEVKCFNDLKAEELLLKIHEVSTVSHADADCFVCVFLSHGEGNHIYAYDAKIEIQTLTGLFKGDKCHSLVGKPKIFIIQACRGNQHDVPVIPLDVVD
B5: caspase-3 (wild type) (protein)
chain: MENTENSVDSKSIKNLEPKIIHGSESMDSGISLDNSYKMDYPEMGLCIIINNKNFHKSTGMTSRSGTDVDAANLRETFRNLKYEVRNKNDLTREEIVELMRDVSKEDHSKRSSFVCVLLSHGEEGIIFGTNGPVDLKKITNFFRGDRCRSLTGKPKLFIIQACRGTELDCGIETDSGVDDDMACHKIPVDADFLYAYSTAPGYYSWRNSKDGSWFIQSLCAMLKQYADKLEFMHILTRVNRKVATEFESFSFDATFHAKKQIPCIVSMLTKELYFYH

Target: T1, rev-caspase-3
Experiment: cell-based or functional assay

Binder	amount of inhibitor required for complete inhibition, relative to DEVD-CHO [fold]
B1	~10

Target: poly(ADP) ribose polymerase (PARP), P09874
Experiment: not given

Sequence of poly(ADP) ribose polymerase (PARP), P09874 (P09874 whole entry, looked up): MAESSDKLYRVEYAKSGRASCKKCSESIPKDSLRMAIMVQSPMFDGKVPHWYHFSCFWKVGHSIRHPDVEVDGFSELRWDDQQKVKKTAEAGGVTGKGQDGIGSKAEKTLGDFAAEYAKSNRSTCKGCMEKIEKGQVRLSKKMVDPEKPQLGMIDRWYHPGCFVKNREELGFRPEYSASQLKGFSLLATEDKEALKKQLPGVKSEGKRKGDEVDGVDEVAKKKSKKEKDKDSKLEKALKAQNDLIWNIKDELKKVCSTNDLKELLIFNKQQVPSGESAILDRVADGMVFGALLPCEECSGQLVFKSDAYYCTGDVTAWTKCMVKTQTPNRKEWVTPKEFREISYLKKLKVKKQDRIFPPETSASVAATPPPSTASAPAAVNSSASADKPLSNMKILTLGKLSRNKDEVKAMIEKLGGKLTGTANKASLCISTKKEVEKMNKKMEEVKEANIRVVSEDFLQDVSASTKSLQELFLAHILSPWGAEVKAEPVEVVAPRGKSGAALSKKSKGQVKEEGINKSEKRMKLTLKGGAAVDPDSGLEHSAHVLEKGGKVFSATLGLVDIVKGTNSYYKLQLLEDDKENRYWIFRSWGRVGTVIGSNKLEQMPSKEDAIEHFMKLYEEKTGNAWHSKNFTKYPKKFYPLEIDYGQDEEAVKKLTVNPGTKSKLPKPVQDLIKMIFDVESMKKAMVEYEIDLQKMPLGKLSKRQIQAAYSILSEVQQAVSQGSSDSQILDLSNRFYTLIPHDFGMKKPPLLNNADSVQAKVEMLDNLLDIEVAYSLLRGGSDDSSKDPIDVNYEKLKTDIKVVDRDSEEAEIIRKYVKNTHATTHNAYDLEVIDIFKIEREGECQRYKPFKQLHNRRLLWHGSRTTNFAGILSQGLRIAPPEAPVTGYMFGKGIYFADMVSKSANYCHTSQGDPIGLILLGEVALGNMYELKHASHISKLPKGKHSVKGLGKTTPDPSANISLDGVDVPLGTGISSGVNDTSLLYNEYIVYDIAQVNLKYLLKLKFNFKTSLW

Binder	substrate cleavage (bacterial extract incubated with purified PARP, Western blot)
B2	Both caspase-3 variants (rev and WT), but not caspase-6 variants efficiently cleaved PARP
B3	Both caspase-3 variants (rev and WT), but not caspase-6 variants efficiently cleaved PARP
B4	Both caspase-3 variants (rev and WT), but not caspase-6 variants efficiently cleaved PARP
B5	Both caspase-3 variants (rev and WT), but not caspase-6 variants efficiently cleaved PARP

Target: T2, C-terminus of lamin A, P02545
Experiment: not given

Binder	substrate cleavage (bacterial extract incubated with 35S-labelled lamin A C-terminus, autoradiography)
B2	both caspase-6 variants, but not caspase-3 variants efficiently cleaved lamin
B3	both caspase-6 variants, but not caspase-3 variants efficiently cleaved lamin
B4	both caspase-6 variants, but not caspase-3 variants efficiently cleaved lamin
B5	both caspase-6 variants, but not caspase-3 variants efficiently cleaved lamin

— patent US6379950 (THOMAS JEFFERSON UNIVERSITY, dated 2002)
